Article PMC10397247
Like-named read-outs stand apart in the source and are kept apart here. Values belong to the binder of their own block, whether it stands above or below them.

Experiments:
O8-bA = target: T1, O8-bA; assay: two-hybrid library CCNG1;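 further: natural log of median RNA to DNA barcode read ratio; higher means stronger binding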
T1 chain: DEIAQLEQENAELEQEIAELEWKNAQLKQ

O9-bA = target: T2, O9-bA; assay: two-hybrid library CCNG1;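 further: natural log of median RNA to DNA barcode read ratio; higher means stronger binding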
T2 chain: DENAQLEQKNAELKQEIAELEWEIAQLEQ

4H967-AA = target: T3, 4H967-AA; assay: two-hybrid library CCmax; conditions: mean of both orientations;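 further: natural log of median RNA to DNA barcode read ratio; higher means stronger binding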
T3 chain: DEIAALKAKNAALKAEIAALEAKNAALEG

4H953-AA = target: T4, 4H953-AA; assay: two-hybrid library CCmax; conditions: mean of both orientations;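 further: natural log of median RNA to DNA barcode read ratio; higher means stronger binding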
T4 chain: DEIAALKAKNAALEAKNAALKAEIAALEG

4H918-AA = target: T5, 4H918-AA; assay: two-hybrid library CCmax
T5 chain: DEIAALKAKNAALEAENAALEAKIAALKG

- interaction score (O8-bA): -0.832
- interaction score (O9-bA): 0.317
Binder: DEIAQLEQENAELEQEIAELEWKNAQLKQ [O8-bA]

- interaction score (4H967-AA): -0.889
- interaction score (4H953-AA): 2.09
- interaction score (4H918-AA): 1.24
Binder: DEIAALKAKNAALEAENAALEAKIAALKG [4H918-AA]

- interaction score (O9-bA; mean of both orientations): -0.959
Binder: DENAQLEQKNAELKQEIAELEWEIAQLEQ [O9-bA]
